Numbering of substitutions follows the chain as printed.
T1: Recombinant Human IL-17 (human, UniProt Q16552 20-155, limits assumed)
T1 construct: bought reagent
T1 sequence (looked up): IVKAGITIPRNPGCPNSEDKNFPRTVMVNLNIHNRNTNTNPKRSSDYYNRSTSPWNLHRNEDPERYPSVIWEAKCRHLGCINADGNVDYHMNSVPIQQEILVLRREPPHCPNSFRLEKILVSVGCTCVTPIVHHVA

B1: DVD1593 (bispecific antibody, human IgG1, kappa)
heavy: not shown
light: DTQVTQSPSSLSASVGDRVTITCITSTDIDVDMNWYQQKPGKPPKLLISQGNTLRPGVPSRFSSSGSGTDFTFTISSLQPEDFATYYCLQSDNLPLTFGQGTKLEIKRTVAAPSVFIFPPDIQMTQSPSSLSASVGDRVTITCRASSGIISYIDWFQQKPGKAPKRLIYATFDLASGVPSRFSGSGSGTDYTLTISSLQPEDFATYYCRQVGSYPETFGQGTKLEIKRTVAAPSVFIFPPSDEQLKSGTASVVCLLNNFYPREAKVQWKVDNALQSGNSQESVTEQDSKDSTYSLSSTLTLSKADYEKHKVYACEVTHQGLSSPVTKSFNRGEC
notes: DVD-Ig, outer AB270, inner AB273, linker set 2; V1 wt hIgG1, V2 kappa; also called DVD1593H; DVD1593L
B2: DVD1595 (bispecific antibody, human IgG1, kappa)
heavy: not shown
light: DTVVTQSPAFLSVTPGEKVTITCITSTDIDVDMNWYQQKPDQPPKLLISQGNTLRPGVPSRFSSSGSGTDFTFTISSLEAEDAATYYCLQSDNLPLTFGQGTKLEIKRTVAAPSVFIFPPDIQMTQSPSSLSASVGDRVTITCRASSGIISYIDWFQQKPGKAPKRLIYATFDLASGVPSRFSGSGSGTDYTLTISSLQPEDFATYYCRQVGSYPETFGQGTKLEIKRTVAAPSVFIFPPSDEQLKSGTASVVCLLNNFYPREAKVQWKVDNALQSGNSQESVTEQDSKDSTYSLSSTLTLSKADYEKHKVYACEVTHQGLSSPVTKSFNRGEC
notes: DVD-Ig, outer AB271, inner AB273, linker set 2; V1 wt hIgG1, V2 kappa; also called DVD1595H; DVD1595L
B3: DVD1597 (bispecific antibody, human IgG1, kappa)
heavy: not shown
light: B1 light with D1E, Q3T
notes: DVD-Ig, outer AB272, inner AB273, linker set 2; V1 wt hIgG1, V2 kappa; also called DVD1597H; DVD1597L
B4: DVD1599 (bispecific antibody, human IgG1, kappa)
heavy: not shown
light: DIQMTQSPSSLSASVGDRVTITCRASGNIHNYLTWYQQTPGKAPKLLIYNAKTLADGVPSRFSGSGSGTDYTFTISSLQPEDIATYYCQHFWSIPYTFGQGTKLQITRTVAAPSVFIFPPEIVLTQSPDFQSVTPKEKVTITCRASQDIGSELHWYQQKPDQPPKLLIKYASHSTSGVPSRFSGSGSGTDFTLTINGLEAEDAGTYYCHQTDSLPYTFGPGTKVDIKRTVAAPSVFIFPPSDEQLKSGTASVVCLLNNFYPREAKVQWKVDNALQSGNSQESVTEQDSKDSTYSLSSTLTLSKADYEKHKVYACEVTHQGLSSPVTKSFNRGEC
notes: V1 wt hIgG1, V2 kappa; also called DVD1599H; DVD1599L
B5: DVD1601 (bispecific antibody, human IgG1, kappa)
heavy: not shown
light: B4 light
notes: V1 wt hIgG1, V2 kappa; also called DVD1601H; DVD1601L
B6: DVD1603 (bispecific antibody, human IgG1, kappa)
heavy: not shown
light: DTQVTQSPSSLSASVGDRVTITCITSTDIDVDMNWYQQKPGKPPKLLISQGNTLRPGVPSRFSSSGSGTDFTFTISSLQPEDFATYYCLQSDNLPLTFGQGTKLEIKRTVAAPSVFIFPPEIVLTQSPDFQSVTPKEKVTITCRASQDIGSELHWYQQKPDQPPKLLIKYASHSTSGVPSRFSGSGSGTDFTLTINGLEAEDAGTYYCHQTDSLPYTFGPGTKVDIKRTVAAPSVFIFPPSDEQLKSGTASVVCLLNNFYPREAKVQWKVDNALQSGNSQESVTEQDSKDSTYSLSSTLTLSKADYEKHKVYACEVTHQGLSSPVTKSFNRGEC
notes: DVD-Ig, outer AB270, inner AB274, linker set 2; V1 wt hIgG1, V2 kappa; also called DVD1603H; DVD1603L
B7: DVD1605 (bispecific antibody, human IgG1, kappa)
heavy: not shown
light: DTVVTQSPAFLSVTPGEKVTITCITSTDIDVDMNWYQQKPDQPPKLLISQGNTLRPGVPSRFSSSGSGTDFTFTISSLEAEDAATYYCLQSDNLPLTFGQGTKLEIKRTVAAPSVFIFPPEIVLTQSPDFQSVTPKEKVTITCRASQDIGSELHWYQQKPDQPPKLLIKYASHSTSGVPSRFSGSGSGTDFTLTINGLEAEDAGTYYCHQTDSLPYTFGPGTKVDIKRTVAAPSVFIFPPSDEQLKSGTASVVCLLNNFYPREAKVQWKVDNALQSGNSQESVTEQDSKDSTYSLSSTLTLSKADYEKHKVYACEVTHQGLSSPVTKSFNRGEC
notes: DVD-Ig, outer AB271, inner AB274, linker set 2; V1 wt hIgG1, V2 kappa; also called DVD1605H; DVD1605L
B8: DVD1609 (bispecific antibody, human IgG1, kappa)
heavy: not shown
light: B4 light with D148N, P163S, T175I, G204A, T211S, S213T, Y216H, P220Q
notes: V1 wt hIgG1, V2 kappa; also called DVD1609H; DVD1609L
B9: DVD1611 (bispecific antibody, human IgG1, kappa)
heavy: not shown
light: B4 light with D148N, P163S, T175I, G204A, T211S, S213T, Y216H, P220Q
notes: V1 wt hIgG1, V2 kappa; also called DVD1611H; DVD1611L
B10: DVD1613 (bispecific antibody, human IgG1, kappa)
heavy: not shown
light: B6 light with D148N, P163S, T175I, G204A, T211S, S213T, Y216H, P220Q
notes: DVD-Ig, outer AB270, inner AB275, linker set 2; V1 wt hIgG1, V2 kappa; also called DVD1613H; DVD1613L
B11: DVD1615 (bispecific antibody, human IgG1, kappa)
heavy: not shown
light: B7 light with D148N, P163S, T175I, G204A, T211S, S213T, Y216H, P220Q
notes: DVD-Ig, outer AB271, inner AB275, linker set 2; V1 wt hIgG1, V2 kappa; also called DVD1615H; DVD1615L
B12: DVD1623 (bispecific antibody, human IgG1, kappa)
heavy: not shown
light: DTQVTQSPSSLSASVGDRVTITCITSTDIDVDMNWYQQKPGKPPKLLISQGNTLRPGVPSRFSSSGSGTDFTFTISSLQPEDFATYYCLQSDNLPLTFGQGTKLEIKRTVAAPDIQMTQSPSSLSASVGDRVTITCRASSGIISYIDWFQQKPGKAPKRLIYATFDLASGVPSRFSGSGSGTDYTLTISSLQPEDFATYYCRQVGSYPETFGQGTKLEIKRTVAAPSVFIFPPSDEQLKSGTASVVCLLNNFYPREAKVQWKVDNALQSGNSQESVTEQDSKDSTYSLSSTLTLSKADYEKHKVYACEVTHQGLSSPVTKSFNRGEC
notes: DVD-Ig, outer AB270, inner AB273, linker set 3; V1 wt hIgG1, V2 kappa; also called DVD1623H; DVD1623L
B13: DVD1625 (bispecific antibody, human IgG1, kappa)
heavy: not shown
light: DTVVTQSPAFLSVTPGEKVTITCITSTDIDVDMNWYQQKPDQPPKLLISQGNTLRPGVPSRFSSSGSGTDFTFTISSLEAEDAATYYCLQSDNLPLTFGQGTKLEIKRTVAAPDIQMTQSPSSLSASVGDRVTITCRASSGIISYIDWFQQKPGKAPKRLIYATFDLASGVPSRFSGSGSGTDYTLTISSLQPEDFATYYCRQVGSYPETFGQGTKLEIKRTVAAPSVFIFPPSDEQLKSGTASVVCLLNNFYPREAKVQWKVDNALQSGNSQESVTEQDSKDSTYSLSSTLTLSKADYEKHKVYACEVTHQGLSSPVTKSFNRGEC
notes: DVD-Ig, outer AB271, inner AB273, linker set 3; V1 wt hIgG1, V2 kappa; also called DVD1625H; DVD1625L
B14: DVD1627 (bispecific antibody, human IgG1, kappa)
heavy: not shown
light: B12 light with D1E, Q3T
notes: DVD-Ig, outer AB272, inner AB273, linker set 3; V1 wt hIgG1, V2 kappa; also called DVD1627H; DVD1627L

What follows are binders tested against T2, Recombinant Human IL-1β (human, UniProt P01584 117-269) (assay: Biacore SPR; N-terminal VD).
T2 construct: bought reagent; also called IL-1B
Summary of the method: (§1)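 Reported constants are kon (M⁻¹s⁻¹), koff (s⁻¹) and KD, calculated as koff/kon from a global 1:1 Langmuir fit. Antigen at 10−200 nM was passed over antibody or DVD-Ig captured on an anti-mouse IgG Fcγ surface in HBS-EP pH 7.4 at 25° C.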

How did the Kd turn out when B1 was run?
Its Kd is 64 pM.

And the koff?
The koff was 0.00047 s⁻¹.

And the kon?
Its kon is 7.4e+06 M⁻¹ s⁻¹.

B2 was tested. Which Kd did it give?
The Kd was 55 pM.

What about the koff of the same binder?
Its koff is 0.00041 s⁻¹.

What about the kon of the same binder?
Its kon is 7.4e+06 M⁻¹ s⁻¹.

For B3, which Kd is on record?
Its Kd is 75 pM.

And the koff?
Its koff is 0.00063 s⁻¹.

What about the kon of the same binder?
Its kon is 8.4e+06 M⁻¹ s⁻¹.

Which Kd does the source give for B4 here?
The Kd was 21 pM.

What about the koff of the same binder?
Its koff is 4.1e-05 s⁻¹.

What about the kon of the same binder?
Its kon is 2e+06 M⁻¹ s⁻¹.

B5 was tested. Which Kd did it give?
Its Kd is 16 pM.

What about the koff of the same binder?
Its koff is 2e-05 s⁻¹.

What about the kon of the same binder?
The kon was 1.2e+06 M⁻¹ s⁻¹.

Which Kd does the source give for B6 here?
Its Kd is 69 pM.

And the koff?
Its koff is 0.00048 s⁻¹.

What about the kon of the same binder?
Its kon is 6.9e+06 M⁻¹ s⁻¹.

With B7 as the binder, how does the Kd read?
Its Kd is 59 pM.

What about the koff of the same binder?
The koff was 0.0005 s⁻¹.

And the kon?
The kon was 8.6e+06 M⁻¹ s⁻¹.

Which results are given for B8?
Kd: 22 pM; koff: 4.6e-05 s⁻¹; kon: 2.1e+06 M⁻¹ s⁻¹

For B9, which Kd is on record?
Its Kd is 420 pM.

What about the koff of the same binder?
The koff was 0.00013 s⁻¹.

What about the kon of the same binder?
Its kon is 310000 M⁻¹ s⁻¹.

What does the source list for B10?
Kd: 59 pM; koff: 0.00046 s⁻¹; kon: 7.8e+06 M⁻¹ s⁻¹

Which results are given for B11?
Kd: 55 pM; koff: 0.00055 s⁻¹; kon: 9.9e+06 M⁻¹ s⁻¹

For B12, which Kd is on record?
Its Kd is 75 pM.

What about the koff of the same binder?
Its koff is 0.00049 s⁻¹.

What about the kon of the same binder?
Its kon is 6.6e+06 M⁻¹ s⁻¹.

B13 was tested. Which Kd did it give?
Its Kd is 63 pM.

And the koff?
Its koff is 0.00054 s⁻¹.

And the kon?
The kon was 8.6e+06 M⁻¹ s⁻¹.

Which Kd does the source give for B14 here?
Its Kd is 86 pM.

And the koff?
Its koff is 0.00059 s⁻¹.

What about the kon of the same binder?
Its kon is 6.8e+06 M⁻¹ s⁻¹.

What follows are binders tested against T1, Recombinant Human IL-17 (assay: Biacore SPR; C-terminal VD).
Summary of the method: as §1

What does the source list for B1?
Kd: 27 pM; koff: 9.2e-06 s⁻¹; kon: 340000 M⁻¹ s⁻¹

With B2 as the binder, how does the Kd read?
Its Kd is 4.3 pM.

What about the koff of the same binder?
The koff was 6e-06 s⁻¹.

What about the kon of the same binder?
The kon was 1.4e+06 M⁻¹ s⁻¹.

How did the Kd turn out when B3 was run?
The Kd was 12 pM.

What about the koff of the same binder?
The koff was 4.1e-06 s⁻¹.

What about the kon of the same binder?
The kon was 350000 M⁻¹ s⁻¹.

For B4, which Kd is on record?
The Kd was no more than 0.074 pM.

What about the koff of the same binder?
Its koff is less than 1e-06 s⁻¹.

And the kon?
The kon was 120000 M⁻¹ s⁻¹.

Which Kd does the source give for B5 here?
Its Kd is no more than 0.12 pM.

What about the koff of the same binder?
The koff was less than 1e-06 s⁻¹.

What about the kon of the same binder?
Its kon is 120000 M⁻¹ s⁻¹.

For B6, which Kd is on record?
Its Kd is no more than 0.27 pM.

What about the koff of the same binder?
The koff was less than 1e-06 s⁻¹.

What about the kon of the same binder?
The kon was 310000 M⁻¹ s⁻¹.

What does the source list for B7?
Kd: ≤ 0.068 pM; koff: < 1e-06 s⁻¹; kon: 410000 M⁻¹ s⁻¹

For B8, which Kd is on record?
The Kd was no more than 0.84 pM.

And the koff?
The koff was less than 1e-06 s⁻¹.

And the kon?
The kon was 89000 M⁻¹ s⁻¹.

How did the Kd turn out when B9 was run?
Its Kd is 15 pM.

What about the koff of the same binder?
Its koff is 6e-05 s⁻¹.

What about the kon of the same binder?
The kon was 4.1e+06 M⁻¹ s⁻¹.

Which Kd does the source give for B10 here?
The Kd was no more than 0.15 pM.

What about the koff of the same binder?
The koff was less than 1e-06 s⁻¹.

And the kon?
Its kon is 360000 M⁻¹ s⁻¹.

For B11, which Kd is on record?
The Kd was 150 pM.

And the koff?
The koff was 6e-05 s⁻¹.

And the kon?
Its kon is 390000 M⁻¹ s⁻¹.

For B12, which Kd is on record?
The Kd was no more than 0.034 pM.

What about the koff of the same binder?
The koff was less than 1e-06 s⁻¹.

And the kon?
The kon was 230000 M⁻¹ s⁻¹.

How did the Kd turn out when B13 was run?
The Kd was 5.1 pM.

What about the koff of the same binder?
The koff was 3.2e-06 s⁻¹.

What about the kon of the same binder?
The kon was 630000 M⁻¹ s⁻¹.

For B14, which Kd is on record?
The Kd was 8.4 pM.

What about the koff of the same binder?
Its koff is 1.7e-06 s⁻¹.

What about the kon of the same binder?
Its kon is 200000 M⁻¹ s⁻¹.

From patent US20120034160A1 (AbbVie / Abbott, published 2012)
